Laboratory results published in US20130133108A1, “EXTRACTS FROM PIRIN+ AND PIRIN- PLANTS AND USES THEREOF” (priority 2010, published 2013).
Blank lines part the entries; values can stand above or below the molecule they belong to.

Experiments:
animal cells = conditions: reported, no source named; cited from earlier work
[1] = target: T1, In vitro-translated AtGPA1 pre-incubated with GTPgammaS (permanently activated conformation) (Arabidopsis thaliana, UniProt P18064 1-383); test: in vitro association/activity assay, GPA1:Pirin1 1:1, interaction inferred from loss of quercetinase activity
T1 construct: Same polypeptide as m3 but a different nucleotide state; also called GPA1-GTPgammaS
T1 sequence (looked up): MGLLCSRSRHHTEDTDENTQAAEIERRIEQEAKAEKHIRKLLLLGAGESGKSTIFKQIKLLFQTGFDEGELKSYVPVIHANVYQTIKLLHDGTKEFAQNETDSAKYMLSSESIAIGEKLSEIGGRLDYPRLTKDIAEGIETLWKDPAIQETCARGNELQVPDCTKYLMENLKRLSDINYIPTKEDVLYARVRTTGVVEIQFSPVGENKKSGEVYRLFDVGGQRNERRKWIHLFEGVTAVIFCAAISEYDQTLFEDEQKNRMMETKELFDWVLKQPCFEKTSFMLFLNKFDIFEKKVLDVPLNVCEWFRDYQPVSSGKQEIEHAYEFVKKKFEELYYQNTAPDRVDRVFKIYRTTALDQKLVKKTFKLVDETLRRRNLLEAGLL
Method: (§1) Translated Pirin1 was prepared as described above and in vitro association assays were conducted in assay buffer (pre-incubations included magnesium) at 26° C. (Adams and Jai, J. Biol. Chem. 280(31):28675-82, 2005; Warpeha et al., Plant Physiol. 140:844-55, 2006). GPA1 was incubated with Pirin1 in a 1:1 ratio. “Activated” Pirin1 was achieved by pre-incubation with 100 μM GTPγS (a non-hydrolysable GTP analog). “Inactivated” Pirin1 was achieved by pre-incubation with GDP, or GDPγS (a non-hydrolysable GDP analog). Both pre-incubations occurred overnight in darkness at 10° C.
(§2) The observed AtPirin1 quercetinase activity is regulated through its' interactions with GPA. […] AtGPA1 bound to one of the two non-hydrolyzable analogs was then incubated with AtPirin1 and quercetin in conditions identical to that for FIG. 1.

[2] = Quercetinase (quercetin 2,3-dioxygenase) activity of in vitro-translated AtPirin1, absorbance spectrum; assay type: biochemical, Arabidopsis thaliana
Method: Full-length PIRIN1 template was prepared, amplified and purified by the methods described (Lapik and Kaufman, Plant Cell. 15(7):1578-90, 2003; Warpeha et al., Plant Physiol. 140:844-55, 2006). Pirin1 proteins were individually produced by coupled in vitro transcription/translation using TNT T7 Coupled Wheat Germ Extract System (Promega; Madison, Wis.) as directed and as modified previously (Warpeha et al., Plant Physiol. 140:844-55, 2006). Translated Pirin1 was subsequently incubated with quercetin in complete darkness in a 26° C. circulating water bath for 15 minutes.
The quercetin 2,3-dioxygenase activity of Pirin1 was determined as described in Adams and Jai (J. Biol. Chem. 280(31):28675-82, 2005). Briefly, the quercetin 2,3-dioxygenase activity of pirin wase assayed at 295 K for 5 min in a reaction mixture containing 50 mm NaH2PO4, pH 8.0, 300 mm NaCl, 60 μm quercetin in Me2SO, and 18.5 nm enzyme. Activity was observed by following the decrease in the absorbance maximum for quercetin, which occurs at 384 nm at pH 8.0. The inhibitors kojic acid, sodium diethyldithiocarbamate, and 1,10-phenanthroline monohydrochloride were dissolved in Me2SO and added to the reactions at a final concentration of 50 nm.
as §1

[3] = target: T2, In vitro-translated AtGPA1 pre-incubated with GDPalphaS (permanently inactive conformation) (Arabidopsis thaliana, UniProt P18064 1-383); test: in vitro association/activity assay, GPA1:Pirin1 1:1, association inferred from the quercetin absorbance spectrum
T2 construct: Same polypeptide as m2 but a different nucleotide state; also called GPA1-GDPalpha
T2 sequence (looked up): T1 sequence (looked up)
Method: as §1, §2

Molecule: O=c1c(O)c(-c2ccc(O)c(O)c2)oc2cc(O)cc(O)c12 [quercetin]
- concentration considered toxic in animal cells (animal cells): above 20 μM

- binding result [1]: binds
- absorbance peak of quercetin with AtPirin1 and inactivated conformation of AtGPA1 ([2]; AtGPA1 pre-incubated with non-hydrolysable GDP analog, FIG. 2): 405-410 nm
- absorbance peak of quercetin after addition of AtPirin1 ([2]; AtPirin1 alone, within 15 min at 26° C., quercetin alone 384 nm): 405-410 nm
- binding result [3]: binds
B1: Arabidopsis thaliana Pirin1 (AtPirin1), in vitro-translated (enzyme)
chain: MTYENNSVPRIVIKKVLAKLEKEGEGAVVRNGITKIDQKLLDPFVLLVEFSFSLSAGFPDHPHRGFESVTYMLQGGIIHKDPKGHKGTIQAGDVQWMTAGRGIIHSEFPEEEVNNGLQLWINLPSTEKMTEPKYKELSSLDIPRAEENGVEVKVIAGDSMGIKSPVYTRTPTMFLDFTLKPGSQTHQTVPESWTAFAYIIEGDEGVFGSLNSSAISAHHVVVFGPGDLVSVWNKSTSRSLRFLLIAGEPIGEPVVQCGPFVMNSQAEIDMAFDDYQNAKNGFEMAKC
notes: also called PRN1; Prn1
- quercetinase activity with activated conformation of AtGPA1 ([2]; AtGPA1 pre-incubated with GTPγS, FIG. 2): no quercetinase activity
- quercetinase activity (cleavage of quercetin) ([2]; AtPirin1 alone with quercetin, 15 min at 26° C., FIG. 1): specific cleavage of quercetin
